Test results taken from US6913892.
pKi: −log10 of the molar value. Where two headings read alike, the source gives them in different places.

Key:
[1] = target: Y2-like receptor population expressed by human SK-N-Be(2) neuroblastoma cells; assay: 125I-PYY displacement, SK-N-Be(2) membranes
[2] = target: human Y1 receptor (human) (UniProt P25929); assay: 125I-PYY displacement, COS-7 membranes
[3] = target: human Y4 receptor (human) (UniProt P0DQD5); assay: 125I-PYY displacement, COS-7 membranes (as in Table 3)
Sequence of human Y4 receptor (human) (P0DQD5 whole entry): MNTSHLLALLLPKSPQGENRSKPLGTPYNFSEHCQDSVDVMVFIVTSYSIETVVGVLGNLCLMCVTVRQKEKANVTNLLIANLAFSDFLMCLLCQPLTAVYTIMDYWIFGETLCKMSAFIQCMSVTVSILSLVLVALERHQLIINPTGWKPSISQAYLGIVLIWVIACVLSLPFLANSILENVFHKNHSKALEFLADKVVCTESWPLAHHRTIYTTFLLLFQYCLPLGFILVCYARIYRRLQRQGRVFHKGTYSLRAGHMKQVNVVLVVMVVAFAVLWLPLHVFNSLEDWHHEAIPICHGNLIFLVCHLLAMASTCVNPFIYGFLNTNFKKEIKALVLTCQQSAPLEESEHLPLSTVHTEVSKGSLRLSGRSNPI

[4] = target: human Y1 receptor (human) (UniProt P25929); assay: 125I-PYY displacement, COS-7 membranes; remark: listed apart in the source
[5] = target: human Y4 receptor (human) (UniProt P0DQD5); assay: 125I-PYY displacement, COS-7 membranes
[6] = target: human Y2 receptor (human) (UniProt P49146); assay: 125I-PYY displacement, COS-7 membranes
Sequence of human Y2 receptor (human) (P49146 whole entry): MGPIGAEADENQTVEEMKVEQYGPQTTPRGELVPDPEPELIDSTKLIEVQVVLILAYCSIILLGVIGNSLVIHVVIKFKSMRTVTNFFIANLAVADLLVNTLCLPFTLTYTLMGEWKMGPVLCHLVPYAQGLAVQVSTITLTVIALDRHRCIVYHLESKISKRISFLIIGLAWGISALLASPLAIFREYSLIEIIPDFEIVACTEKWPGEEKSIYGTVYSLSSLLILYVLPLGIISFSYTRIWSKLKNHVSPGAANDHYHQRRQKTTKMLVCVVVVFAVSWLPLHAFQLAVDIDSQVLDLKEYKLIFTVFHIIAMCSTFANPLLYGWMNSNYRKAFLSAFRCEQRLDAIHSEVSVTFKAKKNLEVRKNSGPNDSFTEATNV

[7] = target: human Y4 receptor (human) (UniProt P0DQD5); assay: 125I-PYY displacement, COS-7 membranes; remark: listed apart in the source
[8] = target: human Y4 receptor (human) (UniProt P0DQD5); assay: 125I-PYY displacement, COS-7 membranes; remark: listed apart in the source
rat Y4 receptor (rat) = rat Y4 receptor (rat) (UniProt Q63447); assay: 125I-PYY displacement, COS-7 membranes
Sequence of rat Y4 receptor (rat) (Q63447 whole entry R262P): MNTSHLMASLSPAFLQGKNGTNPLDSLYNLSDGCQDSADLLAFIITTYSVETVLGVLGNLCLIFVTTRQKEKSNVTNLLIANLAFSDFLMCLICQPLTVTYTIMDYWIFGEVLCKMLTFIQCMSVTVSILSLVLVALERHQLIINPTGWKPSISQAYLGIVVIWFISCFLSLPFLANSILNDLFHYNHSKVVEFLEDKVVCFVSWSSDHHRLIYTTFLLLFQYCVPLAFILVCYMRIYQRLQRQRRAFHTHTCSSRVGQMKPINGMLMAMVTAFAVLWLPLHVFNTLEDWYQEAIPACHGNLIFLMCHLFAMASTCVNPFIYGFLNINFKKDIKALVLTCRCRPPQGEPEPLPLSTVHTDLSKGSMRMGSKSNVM

[9] = target: Y2-like receptor population expressed by human SK-N-Be(2) neuroblastoma cells; assay: ratio of Ki values, 125I-PYY displacement
[10] = target: human Y4 receptor (human) (UniProt P0DQD5); assay: cell-based or functional assay
[11] = target: human Y1 receptor (human) (UniProt P25929); assay: ratio of Ki values, 125I-PYY displacement
[12] = target: human Y4 receptor (human) (UniProt P0DQD5); assay: ratio of Ki values, 125I-PYY displacement

Sequence of human Y1 receptor (human) (P25929 whole entry): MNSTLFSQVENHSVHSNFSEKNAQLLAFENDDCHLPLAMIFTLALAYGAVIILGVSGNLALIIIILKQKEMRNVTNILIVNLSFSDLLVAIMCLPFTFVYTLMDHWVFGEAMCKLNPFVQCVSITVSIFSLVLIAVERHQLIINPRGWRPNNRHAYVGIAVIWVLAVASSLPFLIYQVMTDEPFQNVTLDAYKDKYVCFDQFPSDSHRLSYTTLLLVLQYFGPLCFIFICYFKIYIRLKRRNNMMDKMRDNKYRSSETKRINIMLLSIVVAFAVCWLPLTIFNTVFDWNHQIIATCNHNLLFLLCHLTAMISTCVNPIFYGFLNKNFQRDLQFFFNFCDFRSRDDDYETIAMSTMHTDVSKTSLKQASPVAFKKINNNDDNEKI
Sequence of PP, salmon (peptide) (P69092 whole entry): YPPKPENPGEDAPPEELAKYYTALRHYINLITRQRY

| Substance | pKi [1] | pKi [2] | pKi [4] | pKi [5] | pKi [6] | pKi [7] | also measured |
| --- | --- | --- | --- | --- | --- | --- | --- |
| porcine NPY18-36 (from UniProt P01304 27-45) (peptide) | 8.68 | 7.15 | 7.55 | 7.20 | – | – | pKi [3]: < 6.54 |
| porcine NPY16-36 (from UniProt P01304 25-45) (peptide) | 8.30 | 7.39 | 7.35 | – | 8.44 | 7.27 | – |
| PP31-36 free acid, human (from UniProt P01298 60-65) (peptide) | – | – | – | – | – | – | pKi [8]: < 5.00 |
| C2-NPY, porcine (peptide) | – | 7.14 | – | – | 8.46 | 6.92 | pKi (rat Y4 receptor (rat)): 7.66 |
| porcine NPY26-36 (from UniProt P01304 35-45) (peptide) | 7.15 | – | < 6.52 | – | 6.42 | – | – |
| porcine NPY20-36 (from UniProt P01304 29-45) (peptide) | 8.51 | 7.20 | 7.21 | 7.00 | – | 6.92 | – |
| PP, avian (peptide) | – | 6.40 | – | – | – | 8.15 | – |
| human peptide YY (from UniProt P10082 29-64) | 9.96 | – | – | – | – | – | fold higher affinity than at hp25a [9]: 5 to 10 fold |
| porcine NPY2-36 (from UniProt P01304 11-45) (peptide) | 9.39 | 8.62 | – | 8.36 | – | 8.25 | – |
| porcine NPY13-36 (from UniProt P01304 22-45) (peptide) | – | 7.15 | 7.29 | 7.41 | 8.60 | 7.42 | pKi (rat Y4 receptor (rat)): 6.87 |
| PP, frog (peptide) | – | 7.01 | – | – | – | 7.21 | pKi [8]: 7.21; pKi (rat Y4 receptor (rat)): 9.72 |
| PP, salmon (peptide) | – | 9.70 | – | – | – | 8.49 | pKi (rat Y4 receptor (rat)): 9.44; pKi [3]: 8.49; EC50, inhibition of forskolin-stimulated cAMP accumulation, LM(tk-) cells [10]: 110 nM |
| porcine NPY22-36 (from UniProt P01304 31-45) (peptide) | 8.49 | – | 6.77 | 6.85 | 7.74 | – | fold loss in affinity against full length porcine NPY [11]: 3500 fold; fold loss in affinity against full length porcine NPY [12]: 120 fold; fold loss in affinity against full length porcine NPY [9]: 11 fold |
| human NPY free acid (from UniProt P01303 29-64) (peptide) | 6.55 | – | – | – | – | – | – |
